Assay results: patent publication KR20150077891A (dated 2015)

How the values were obtained:
[1] = molecular target: T1, NRS (Asparaginyl-tRNA synthetase), recombinant (UniProt O43776 1-548, limits assumed); assay: Luminex multiplex bead assay, antigen coupled to beads, anti-HA-biotin / SA-PE detection
T1 construct: also called 아스파라기닐딜-tRNA 합성효소
T1 sequence (looked up): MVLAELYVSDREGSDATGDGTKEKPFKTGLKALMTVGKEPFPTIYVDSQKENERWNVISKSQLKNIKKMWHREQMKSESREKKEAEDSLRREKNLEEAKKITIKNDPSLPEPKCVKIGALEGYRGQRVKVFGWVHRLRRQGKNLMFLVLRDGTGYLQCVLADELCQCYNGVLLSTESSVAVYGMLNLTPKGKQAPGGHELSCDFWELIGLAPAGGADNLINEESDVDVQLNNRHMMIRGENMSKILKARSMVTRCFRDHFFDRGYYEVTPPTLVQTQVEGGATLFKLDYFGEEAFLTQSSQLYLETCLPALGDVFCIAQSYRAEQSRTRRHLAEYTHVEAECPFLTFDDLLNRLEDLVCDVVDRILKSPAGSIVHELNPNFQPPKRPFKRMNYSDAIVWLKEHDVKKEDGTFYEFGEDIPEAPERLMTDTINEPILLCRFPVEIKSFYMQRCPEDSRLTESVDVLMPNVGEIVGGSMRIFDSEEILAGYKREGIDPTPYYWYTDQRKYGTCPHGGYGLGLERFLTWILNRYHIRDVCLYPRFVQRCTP

[2] = molecular target: T2, HRS (Histidyl-tRNA synthetase), recombinant (UniProt P12081 1-509, limits assumed); assay: as above
T2 construct: also called 히스티딜-tRNA 합성효소
T2 sequence (looked up): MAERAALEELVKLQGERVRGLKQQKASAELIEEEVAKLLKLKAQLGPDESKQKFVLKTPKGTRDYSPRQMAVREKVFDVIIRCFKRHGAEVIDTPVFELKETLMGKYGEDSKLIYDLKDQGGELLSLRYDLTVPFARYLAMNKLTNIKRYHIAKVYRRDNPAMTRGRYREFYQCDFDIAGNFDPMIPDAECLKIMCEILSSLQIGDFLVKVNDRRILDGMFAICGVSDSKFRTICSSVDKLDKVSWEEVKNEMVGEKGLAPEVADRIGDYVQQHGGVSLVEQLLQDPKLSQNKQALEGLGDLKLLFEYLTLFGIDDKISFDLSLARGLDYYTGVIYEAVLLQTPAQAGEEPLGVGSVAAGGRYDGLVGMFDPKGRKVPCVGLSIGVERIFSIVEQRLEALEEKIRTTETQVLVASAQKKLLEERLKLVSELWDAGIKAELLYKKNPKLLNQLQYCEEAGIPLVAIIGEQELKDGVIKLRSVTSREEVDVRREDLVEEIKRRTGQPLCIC

[3] = molecular target: T3, YRS (Tyrosyl-tRNA synthetase), recombinant (UniProt P54577 1-528, limits assumed); assay: as above
T3 construct: also called 타이로실-tRNA 합성효소
T3 sequence (looked up): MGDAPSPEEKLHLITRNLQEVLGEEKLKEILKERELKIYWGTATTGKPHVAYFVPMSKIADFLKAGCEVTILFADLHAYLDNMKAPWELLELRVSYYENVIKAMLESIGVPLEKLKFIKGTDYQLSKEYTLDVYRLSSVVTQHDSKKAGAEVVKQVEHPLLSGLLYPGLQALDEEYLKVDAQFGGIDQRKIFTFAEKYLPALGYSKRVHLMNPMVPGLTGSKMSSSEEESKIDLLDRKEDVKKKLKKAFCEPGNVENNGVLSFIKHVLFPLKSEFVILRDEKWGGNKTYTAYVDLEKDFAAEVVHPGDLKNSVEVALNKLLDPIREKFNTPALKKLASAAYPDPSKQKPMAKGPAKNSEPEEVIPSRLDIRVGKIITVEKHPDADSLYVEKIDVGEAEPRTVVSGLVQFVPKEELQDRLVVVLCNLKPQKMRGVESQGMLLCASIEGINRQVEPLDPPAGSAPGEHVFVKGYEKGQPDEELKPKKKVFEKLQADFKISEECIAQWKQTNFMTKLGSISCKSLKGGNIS

[4] = molecular target: T4, SRS (Seryl-tRNA synthetase), recombinant (UniProt P49591 1-514, limits assumed); assay: as above
T4 construct: also called 세릴-tRNA 합성효소

[5] = molecular target: T5, AIMP1 (Aminoacyl-tRNA-synthetase-interacting multifunctional protein 1), recombinant (UniProt Q12904 1-312, limits assumed); assay: as above
T5 construct: also called p43; AIMP1(p43)
T5 sequence (looked up): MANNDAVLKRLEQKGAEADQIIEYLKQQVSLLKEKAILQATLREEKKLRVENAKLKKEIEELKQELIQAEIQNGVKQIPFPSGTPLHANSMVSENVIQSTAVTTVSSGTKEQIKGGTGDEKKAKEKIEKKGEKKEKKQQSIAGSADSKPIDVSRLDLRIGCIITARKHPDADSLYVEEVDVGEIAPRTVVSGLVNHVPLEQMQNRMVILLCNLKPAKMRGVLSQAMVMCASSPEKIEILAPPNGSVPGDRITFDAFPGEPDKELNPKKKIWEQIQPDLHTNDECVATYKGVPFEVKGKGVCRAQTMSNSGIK

[6] = molecular target: T6, KRS (Lysyl-tRNA synthetase), recombinant (UniProt Q15046 1-597, limits assumed); assay: as above
T6 construct: also called 리실-tRNA 합성효소

[7] = molecular target: T7, GRS (Glycyl-tRNA synthetase), recombinant (UniProt P41250 55-739, limits assumed); assay: as above
T7 construct: also called 글리실-tRNA 합성효소
T7 sequence (looked up): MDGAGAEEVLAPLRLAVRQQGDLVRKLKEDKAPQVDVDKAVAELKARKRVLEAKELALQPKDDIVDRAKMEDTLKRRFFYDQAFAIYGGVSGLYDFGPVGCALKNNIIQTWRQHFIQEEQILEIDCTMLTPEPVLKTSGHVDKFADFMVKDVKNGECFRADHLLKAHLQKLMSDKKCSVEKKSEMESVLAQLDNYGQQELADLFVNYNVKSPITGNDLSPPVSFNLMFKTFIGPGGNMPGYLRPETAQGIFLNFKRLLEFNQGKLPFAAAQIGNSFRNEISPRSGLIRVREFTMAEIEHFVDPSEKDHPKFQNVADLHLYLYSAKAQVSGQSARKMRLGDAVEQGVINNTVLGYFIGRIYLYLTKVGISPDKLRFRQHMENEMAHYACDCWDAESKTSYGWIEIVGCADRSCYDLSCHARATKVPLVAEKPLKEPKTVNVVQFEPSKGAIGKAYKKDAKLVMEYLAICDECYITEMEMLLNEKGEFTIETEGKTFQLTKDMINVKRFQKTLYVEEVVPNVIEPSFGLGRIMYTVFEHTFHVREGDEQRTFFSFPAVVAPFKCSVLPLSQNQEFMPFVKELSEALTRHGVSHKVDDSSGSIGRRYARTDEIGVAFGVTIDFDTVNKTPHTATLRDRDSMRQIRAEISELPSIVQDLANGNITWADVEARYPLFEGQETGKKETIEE

[8] = molecular target: T8, WRS (tryptophanyl-tRNA synthetase), purified recombinant antigen / standard (human, UniProt P23381 1-471, limits assumed); assay: SPR (ProteOn XPR36), WRS amine-coupled to GLC chip, scFv 500-30 nM as analyte, 25 C
T8 construct: The recombinant construct used for panning, SPR, Luminex beads and ELISA is not described; also called WRS 항원; 재조합 WRS 표준물질
T8 sequence (looked up): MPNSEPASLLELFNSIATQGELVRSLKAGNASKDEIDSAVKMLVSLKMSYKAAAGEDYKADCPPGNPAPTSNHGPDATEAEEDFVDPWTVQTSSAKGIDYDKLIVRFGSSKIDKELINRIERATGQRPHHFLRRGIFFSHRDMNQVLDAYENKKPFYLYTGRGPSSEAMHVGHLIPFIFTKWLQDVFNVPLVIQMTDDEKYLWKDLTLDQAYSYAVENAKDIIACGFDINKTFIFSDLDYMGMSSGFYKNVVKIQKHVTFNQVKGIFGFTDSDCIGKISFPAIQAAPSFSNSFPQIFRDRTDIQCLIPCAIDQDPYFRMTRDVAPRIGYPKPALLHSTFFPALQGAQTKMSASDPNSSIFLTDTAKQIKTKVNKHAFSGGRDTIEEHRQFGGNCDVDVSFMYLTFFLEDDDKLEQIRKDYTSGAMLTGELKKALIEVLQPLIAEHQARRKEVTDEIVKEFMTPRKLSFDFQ

T4 sequence (P49591 whole entry): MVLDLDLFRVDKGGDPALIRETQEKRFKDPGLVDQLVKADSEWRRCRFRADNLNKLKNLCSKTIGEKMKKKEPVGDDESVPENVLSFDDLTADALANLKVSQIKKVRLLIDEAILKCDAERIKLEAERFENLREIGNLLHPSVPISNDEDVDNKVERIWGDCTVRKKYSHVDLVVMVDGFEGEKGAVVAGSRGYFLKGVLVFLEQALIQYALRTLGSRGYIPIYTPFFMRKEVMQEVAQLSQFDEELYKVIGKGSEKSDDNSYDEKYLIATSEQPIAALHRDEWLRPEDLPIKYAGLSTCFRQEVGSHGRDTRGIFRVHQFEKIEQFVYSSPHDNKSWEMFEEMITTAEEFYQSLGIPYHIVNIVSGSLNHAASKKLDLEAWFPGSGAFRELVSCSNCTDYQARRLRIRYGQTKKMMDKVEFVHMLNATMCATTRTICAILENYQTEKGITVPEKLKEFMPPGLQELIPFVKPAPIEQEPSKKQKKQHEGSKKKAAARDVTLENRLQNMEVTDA
T6 sequence (Q15046 whole entry): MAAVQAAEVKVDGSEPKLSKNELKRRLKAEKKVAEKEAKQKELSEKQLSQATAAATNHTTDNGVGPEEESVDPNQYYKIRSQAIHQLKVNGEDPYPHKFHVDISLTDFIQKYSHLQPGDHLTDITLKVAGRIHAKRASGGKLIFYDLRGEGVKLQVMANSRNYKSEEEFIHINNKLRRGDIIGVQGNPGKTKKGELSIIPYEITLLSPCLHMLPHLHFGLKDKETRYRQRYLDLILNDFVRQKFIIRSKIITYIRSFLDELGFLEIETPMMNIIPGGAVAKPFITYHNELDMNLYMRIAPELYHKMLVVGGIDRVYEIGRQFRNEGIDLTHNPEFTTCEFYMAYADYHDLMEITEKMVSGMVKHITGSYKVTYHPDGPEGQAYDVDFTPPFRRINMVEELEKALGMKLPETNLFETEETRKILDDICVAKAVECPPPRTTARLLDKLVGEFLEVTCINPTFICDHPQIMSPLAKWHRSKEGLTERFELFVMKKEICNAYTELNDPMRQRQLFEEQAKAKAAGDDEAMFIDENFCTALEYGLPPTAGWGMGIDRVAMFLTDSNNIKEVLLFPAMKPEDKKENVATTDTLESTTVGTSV

B1: anti-WRS scFv Biocon-W1 (scFv)
scFv: EVQLLESGGGLVQPGGSLRLSCAASGLAFSDYYMSWVRLAPGKGLEWVSVISPGSGSKYYADSVRGRFTVSRDNSKNTLYLQMNSLRAEDTAVYYCARKNQAFDYWGQGTLVTVSSGGGGSGGGGSGGGGSQSVLTQPPSASGTPGQRVTISCTGSSSNIGSNYVTWYQQLPGTAPKLLIYANSQRPSGVPDRFSGSKSGTSASLAISGLRSEDEADYYCASWDASLSGYVFGGGTKLTVL
notes: Single clone selected from a human VH3-23/VL1g synthetic scFv phage library and expressed in the E. coli periplasm; also called 항 WRS scFv 항체; 본 발명의 항체; not shown: His and HA tags from the pComb3X vector, implied by Ni-NTA purification and anti-HA detection
binding result [1]: no binding
binding result [2]: no binding
binding result [3]: no binding
binding result [4]: no binding
binding result [5]: no binding
binding result [6]: no binding
binding result [7]: no binding
Kd [8]: 700 nM
